B1: AMOTL2 peptide 64-79 (Angiomotin-like protein 2), 16-mer library wild type / TNKS ANK (TNKS 12 ANK repeats, residues 174-649) (parent complex)
chain 1: QVLQQATRQEPQGQEH
chain 2: TGVPAVSGALRELLEACRNGDVSRVKRLVDAANVNAKDMAGRKSSPLHFAAGFGRKDVVEHLLQMGANVHARDDGGLIPLHNACSFGHAEVVSLLLCQGADPNARDNWNYTPLHEAAIKGKIDVCIVLLQHGADPNIRNTDGKSALDLADPSAKAVLTGEYKKDELLEAARSGNEEKLMALLTPLNVNCHASDGRKSTPLHLAAGYNRVRIVQLLLQHGADVHAKDKGGLVPLHNACSYGHYEVTELLLKHGACVNAMDLWQFTPLHEAASKNRVEVCSLLLSHGADPTLVNCHGKSAVDMAPTPELRERLTYEFKGHSLLQAAREADLAKVKKTLALEIINFKQPQSHETALHCAVASLHPKRKQVTELLLRKGANVNEKNKDFMTPLHVAAERAHNDVMEVLHKHGAKMNALDTLGQTALHRAALAGHLQTCRLLLSYGSDPSIISLQGFTAAQMGNEAVQQILSESTPIRTSD

Variants of: B1
Test: proteomic peptide phage display deep mutational scan (ProP-PD DMS): M13 P8 16-mer library selected against immobilised GST-tagged bait for four days (rounds), NGS of the eluted pools per day and pseudo-replica; bait immobilised on MaxiSorp plates (10 µg), library pre-cleared on GST, 2 h binding at 4 °C, five washes; one round per day, days 1-4; value from days 2 and 3

Variant | screen value
chain 1 Q14I | 0.002 average fractional NGS count over selection days 2 and 3 (reads of this peptide / all reads for the bait, averaged over …
chain 1 Q14N | 0.00223 average fractional NGS count over selection days 2 and 3 (reads of this peptide / all reads for the bait, averaged over …
chain 1 Q14H | 0.00069 average fractional NGS count over selection days 2 and 3 (reads of this peptide / all reads for the bait, averaged over …
chain 1 Q14W | 0.00254 average fractional NGS count over selection days 2 and 3 (reads of this peptide / all reads for the bait, averaged over …
chain 1 Q14D | 0.00025 average fractional NGS count over selection days 2 and 3 (reads of this peptide / all reads for the bait, averaged over …
chain 1 Q14S | 0.00613 average fractional NGS count over selection days 2 and 3 (reads of this peptide / all reads for the bait, averaged over …
chain 1 Q14T | 0.00286 average fractional NGS count over selection days 2 and 3 (reads of this peptide / all reads for the bait, averaged over …
chain 1 H16W | 0.000565 average fractional NGS count over selection days 2 and 3 (reads of this peptide / all reads for the bait, averaged over …
chain 1 H16S | 0.000142 average fractional NGS count over selection days 2 and 3 (reads of this peptide / all reads for the bait, averaged over …
chain 1 H16L | 0.000215 average fractional NGS count over selection days 2 and 3 (reads of this peptide / all reads for the bait, averaged over …
chain 1 H16V | 0.000284 average fractional NGS count over selection days 2 and 3 (reads of this peptide / all reads for the bait, averaged over …
chain 1 R8A | 0.000176 average fractional NGS count over selection days 2 and 3 (reads of this peptide / all reads for the bait, averaged over …
chain 1 G13R | 0.000155 average fractional NGS count over selection days 2 and 3 (reads of this peptide / all reads for the bait, averaged over …
chain 1 E15L | 0.00245 average fractional NGS count over selection days 2 and 3 (reads of this peptide / all reads for the bait, averaged over …
chain 1 E15A | 0.000599 average fractional NGS count over selection days 2 and 3 (reads of this peptide / all reads for the bait, averaged over …
chain 1 E15V | 0.00435 average fractional NGS count over selection days 2 and 3 (reads of this peptide / all reads for the bait, averaged over …
chain 1 E15Y | 0.0003 average fractional NGS count over selection days 2 and 3 (reads of this peptide / all reads for the bait, averaged over …
chain 1 E15R | 0.00165 average fractional NGS count over selection days 2 and 3 (reads of this peptide / all reads for the bait, averaged over …
chain 1 E15S | 0.00106 average fractional NGS count over selection days 2 and 3 (reads of this peptide / all reads for the bait, averaged over …
chain 1 E15Q | 0.000335 average fractional NGS count over selection days 2 and 3 (reads of this peptide / all reads for the bait, averaged over …
chain 1 E15F | 0.000795 average fractional NGS count over selection days 2 and 3 (reads of this peptide / all reads for the bait, averaged over …
chain 1 E15N | 0.00037 average fractional NGS count over selection days 2 and 3 (reads of this peptide / all reads for the bait, averaged over …
chain 1 E15M | 0.000421 average fractional NGS count over selection days 2 and 3 (reads of this peptide / all reads for the bait, averaged over …
chain 1 E10H | 0.000153 average fractional NGS count over selection days 2 and 3 (reads of this peptide / all reads for the bait, averaged over …
chain 1 E10M | 0.00083 average fractional NGS count over selection days 2 and 3 (reads of this peptide / all reads for the bait, averaged over …

Variant | screen value
chain 1 E10V | 0.000245 average fractional NGS count over selection days 2 and 3 (reads of this peptide / all reads for the bait, averaged over …
chain 1 T7E | 0.000563 average fractional NGS count over selection days 2 and 3 (reads of this peptide / all reads for the bait, averaged over …
chain 1 T7H | 0.00103 average fractional NGS count over selection days 2 and 3 (reads of this peptide / all reads for the bait, averaged over …
chain 1 T7P | 0.000581 average fractional NGS count over selection days 2 and 3 (reads of this peptide / all reads for the bait, averaged over …
chain 1 T7M | 0.000455 average fractional NGS count over selection days 2 and 3 (reads of this peptide / all reads for the bait, averaged over …
chain 1 T7Y | 0.00199 average fractional NGS count over selection days 2 and 3 (reads of this peptide / all reads for the bait, averaged over …
chain 1 T7L | 0.000808 average fractional NGS count over selection days 2 and 3 (reads of this peptide / all reads for the bait, averaged over …
chain 1 T7G | 0.00299 average fractional NGS count over selection days 2 and 3 (reads of this peptide / all reads for the bait, averaged over …
chain 1 T7I | 0.000358 average fractional NGS count over selection days 2 and 3 (reads of this peptide / all reads for the bait, averaged over …
chain 1 Q12L | 0.00049 average fractional NGS count over selection days 2 and 3 (reads of this peptide / all reads for the bait, averaged over …
chain 1 Q12N | 0.000885 average fractional NGS count over selection days 2 and 3 (reads of this peptide / all reads for the bait, averaged over …
chain 1 Q12T | 0.0005 average fractional NGS count over selection days 2 and 3 (reads of this peptide / all reads for the bait, averaged over …
chain 1 Q12I | 0.00433 average fractional NGS count over selection days 2 and 3 (reads of this peptide / all reads for the bait, averaged over …
chain 1 Q12M | 0.00046 average fractional NGS count over selection days 2 and 3 (reads of this peptide / all reads for the bait, averaged over …
chain 1 Q12S | 0.000155 average fractional NGS count over selection days 2 and 3 (reads of this peptide / all reads for the bait, averaged over …
chain 1 Q12D | 0.000551 average fractional NGS count over selection days 2 and 3 (reads of this peptide / all reads for the bait, averaged over …
chain 1 Q12E | 0.000439 average fractional NGS count over selection days 2 and 3 (reads of this peptide / all reads for the bait, averaged over …
chain 1 Q12G | 0.000392 average fractional NGS count over selection days 2 and 3 (reads of this peptide / all reads for the bait, averaged over …
chain 1 Q12Y | 0.0011 average fractional NGS count over selection days 2 and 3 (reads of this peptide / all reads for the bait, averaged over …
chain 1 Q5E | 0.000474 average fractional NGS count over selection days 2 and 3 (reads of this peptide / all reads for the bait, averaged over …
chain 1 Q5F | 0.00178 average fractional NGS count over selection days 2 and 3 (reads of this peptide / all reads for the bait, averaged over …
chain 1 Q5K | 0.000455 average fractional NGS count over selection days 2 and 3 (reads of this peptide / all reads for the bait, averaged over …
chain 1 Q5V | 0.00207 average fractional NGS count over selection days 2 and 3 (reads of this peptide / all reads for the bait, averaged over …
chain 1 L3I | 0.00105 average fractional NGS count over selection days 2 and 3 (reads of this peptide / all reads for the bait, averaged over …
chain 1 L3P | 0.000422 average fractional NGS count over selection days 2 and 3 (reads of this peptide / all reads for the bait, averaged over …

Variant | screen value
chain 1 L3D | 0.000181 average fractional NGS count over selection days 2 and 3 (reads of this peptide / all reads for the bait, averaged over …
chain 1 L3Q | 0.00366 average fractional NGS count over selection days 2 and 3 (reads of this peptide / all reads for the bait, averaged over …
chain 1 L3K | 0.00157 average fractional NGS count over selection days 2 and 3 (reads of this peptide / all reads for the bait, averaged over …
chain 1 L3F | 0.00165 average fractional NGS count over selection days 2 and 3 (reads of this peptide / all reads for the bait, averaged over …
chain 1 L3M | 0.000608 average fractional NGS count over selection days 2 and 3 (reads of this peptide / all reads for the bait, averaged over …
chain 1 Q9A | 0.00163 average fractional NGS count over selection days 2 and 3 (reads of this peptide / all reads for the bait, averaged over …
chain 1 Q9W | 0.000813 average fractional NGS count over selection days 2 and 3 (reads of this peptide / all reads for the bait, averaged over …
chain 1 Q9V | 0.000414 average fractional NGS count over selection days 2 and 3 (reads of this peptide / all reads for the bait, averaged over …
chain 1 Q4I | 0.0028 average fractional NGS count over selection days 2 and 3 (reads of this peptide / all reads for the bait, averaged over …
chain 1 Q4K | 0.000138 average fractional NGS count over selection days 2 and 3 (reads of this peptide / all reads for the bait, averaged over …
chain 1 Q4L | 0.000267 average fractional NGS count over selection days 2 and 3 (reads of this peptide / all reads for the bait, averaged over …
chain 1 Q4N | 0.00124 average fractional NGS count over selection days 2 and 3 (reads of this peptide / all reads for the bait, averaged over …
chain 1 Q4D | 0.000668 average fractional NGS count over selection days 2 and 3 (reads of this peptide / all reads for the bait, averaged over …
chain 1 Q4P | 0.000712 average fractional NGS count over selection days 2 and 3 (reads of this peptide / all reads for the bait, averaged over …
chain 1 V2H | 0.00146 average fractional NGS count over selection days 2 and 3 (reads of this peptide / all reads for the bait, averaged over …
chain 1 V2Y | 0.000153 average fractional NGS count over selection days 2 and 3 (reads of this peptide / all reads for the bait, averaged over …
chain 1 V2N | 0.00035 average fractional NGS count over selection days 2 and 3 (reads of this peptide / all reads for the bait, averaged over …
chain 1 V2A | 0.00302 average fractional NGS count over selection days 2 and 3 (reads of this peptide / all reads for the bait, averaged over …
chain 1 V2P | 0.000487 average fractional NGS count over selection days 2 and 3 (reads of this peptide / all reads for the bait, averaged over …
chain 1 V2L | 0.0017 average fractional NGS count over selection days 2 and 3 (reads of this peptide / all reads for the bait, averaged over …
chain 1 V2W | 0.00102 average fractional NGS count over selection days 2 and 3 (reads of this peptide / all reads for the bait, averaged over …
chain 1 A6I | 0.000647 average fractional NGS count over selection days 2 and 3 (reads of this peptide / all reads for the bait, averaged over …
chain 1 A6W | 0.000677 average fractional NGS count over selection days 2 and 3 (reads of this peptide / all reads for the bait, averaged over …
chain 1 A6G | 0.000155 average fractional NGS count over selection days 2 and 3 (reads of this peptide / all reads for the bait, averaged over …
chain 1 A6H | 0.00168 average fractional NGS count over selection days 2 and 3 (reads of this peptide / all reads for the bait, averaged over …
